{"source": "patent US20050255113A1", "about": "“Methods and compositions for inhibiting polypeptide accumulation associated with neurological disorders” (New York State Department of Health and Abgenix, Inc., priority 1999, published 2005)", "molecules": {"B1": {"name": "C4 sFv: human single-chain Fv intrabody from phage display, specific for the 17 N-terminal residues of huntingtin; SEQ ID NO: 6 (protein)", "scFv": "QVQLQESGGGLVQPGGSLRLSCAASGFTFSSYSMSWVRQAPGKGLEWVAVISYDGSNKYYADSVKGRFTISRDNSKNTLYLQMNSLRAEDTAVYYCARDRYFDLWGRGTLVTVSSGGGGSGGGGSGGGGSQSALTQPASVSGSPGQSITISCTGTSSDIGAYNYVSWYQQYPGKAPKLLIYDVSNRPSGISNRFSGSKSGDTASLTISGLQAEDEADYYCSSFANSGPLFGGGTKVTVL"}}, "key": {"[1]": {"test_system": "HD-polyQ-GFP aggregation in COS-7, BHK-21 and HEK 293 cells", "assay": "Quantitation of SDS-insoluble fluorescent aggregates after co-transfection of sFv and HD-polyQ-GFP", "format": "cell-based", "settings": "for number of SDS-insoluble fluorescent aggregates: intrabody to antigen plasmid ratio 5:1, HD-polyQ72 or Q104, 48 hours, COS-7, BHK-21, HEK 293, versus empty vector/control", "method": "Cells are shown photographed live at 48 hours after transfection by the calcium phosphate method; aggregates appear as intense foci of GFP signals. […] […] Cells were lysed with 2% SDS/2% Triton X-100/50 mM Tris at 48 hours after co-transfection. The number of insoluble, fluorescent aggregates in six or eight random fields was counted. Bars represent means of sextuplicate co-transfections ±SEM.\nIn particular, it was observed that the formation of pathological HD aggregates in situ display a striking punctate fluorescent morphology with polyglutamine lengths of 40 or more residues (i.e., with Q72 or Q104, but not Q25; FIG. 14). In addition, because these polypeptide aggregates are detergent-insoluble, a method for improved quantitation of residual fluorescent bodies after SDS lysis of transfected cells could be performed (Kazantsev et al., PNAS 96:11404-11409 (1999)). This improved assay allows for polypeptide aggregates to be more accurately enumerated because the plane of focus is eliminated as a variable in the experiment. Accordingly, this assay was utilized for quantitation of polyQ antigen aggregation, alone or in the presence of C4 sFv or control intrabody. COS-7, BHK, and 293 cells were co-transfected with plasmids that express the C4 or a control intrabody and HD-polyQ-eGFP fusions containing Q25, Q72, or Q104."}, "[2]": {"test_system": "DRPLA polypeptide (GFP-DRPLA-35Q, GFP-DRPLA-Q81)", "sequence (P54259 with tags, fused parts or gaps DUP487-502)": "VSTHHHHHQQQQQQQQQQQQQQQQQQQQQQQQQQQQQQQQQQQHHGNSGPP", "assay": "Intrabody retargeting specificity in COS-7 cells with DRPLA polypeptide (immunofluorescence)", "format": "cell-based", "settings": "COS-7 co-transfection", "method": "COS 7 cells were grown on cover glass in 6-well plates (10^5 cells/well) and co-transfected at a ratio of 3:1 (sFv to target) with plasmids containing either N-HD-C4 sFv or a negative control sFv (containing an HA tag and SV40 nuclear localization sequence (NLS)) and plasmids containing GFP-targeted fusion proteins using 5 μl SuperFect transfection reagent (QIAGEN). At 24 hours post-transfection, cells were prepared for immunofluorescence as follows: cells were fixed with 4% paraformaldehyde and permeabilized with 0.2% triton-X100. To prevent non-specific binding of secondary antibodies, cells were blocked with 10% normal goat serum in 3% BSA.\nThe model DRPLA target polypeptide was fused to a GFP domain to track the expression and intracellular localization of the target polypeptide in the transfected cells. In addition, two different intrabodies, one specific to huntingtin, and a second intrabody specific to an unrelated polypeptide, were independently cotransfected with the DRPLA target polypeptide.\nFIGS. 13A-F show stably transfected COS-7 cells expressing α-Nt-HD-C4 sFv-HA-NLS which were further transfected with plasmids encoding either the model altered huntingtin polypeptide with 104 glutamine repeats (FIGS. 13B, D, F) or the model altered DRPLA polypeptide with 81 glutamine repeats (FIGS. 13A, C, E). […]"}, "[3]": {"test_system": "N-terminal HD sequence (Nt-HD)", "assay": "ELISA of sFv binding to immobilized GST-fusion proteins / biotinylated Nt-HD peptide", "settings": "plates with streptavidin, GST-HD-42Q, GST-HD-65Q, GST-DRPLA-35Q", "method": "As described in Example 2, four rounds of selection were performed with decreasing concentrations of antigen at each round (100 nM, 50 nM, 10 nM, 1 nM). After the third round, bacterial clones were screened to isolate those which secreted sFv molecules specific to the N-terminal HD sequence. Screening was performed by ELISA. Bacterial supernatants containing secreted sFv were incubated with either 2% bovine serum albumin (BSA), as negative control, or with 2% BSA containing biotinylated antigen (0.1 μg/well, final concentration) in pre-blocked microtiter plates overnight at 4° C. The mixtures were then transferred to streptavidin-coated (0.1 μg/well, final concentration) microtiter plates. […] Bound IgG was detected with alkaline phosphatase conjugated to goat anti-mouse IgG.\nFour rounds of selection were performed with decreasing concentrations of antigen at each round (i.e., 100 nM, 50 nM, 10 nM, 1 nM). […] Bound sFv was detected with α-9E10 IgG followed by alkaline phosphatase conjugated goat anti-mouse IgG.\n(§1) To characterize the precise binding properties of the intrabody of the invention, further qualitative and quantitative studies of sFv binding to immobilized antigen were conducted in vitro. […] The kinetics of association and dissociation were determined for the C4 sFv antibody in the BIAcore 2000 (FIG. 11B)."}, "[4]": {"target": "T1, biotinylated HD-peptide (HD peptide (1-17), N-terminal huntingtin) (Homo sapiens, UniProt P42858)", "T1 construct": "host or cells: chemical peptide synthesis", "assay": "Kinetic binding analysis by surface plasmon resonance (BIAcore 2000)", "settings": "corresponding to the Kd", "method": "A range of concentration (60 to 100 nM) of anti-huntingtin intrabody C4 sFv was used to measure the association rate (kon) on 50 RU of biotinylated-HD peptide bound to a streptavidin sensor chip.\nThe Kd of purified scFv clone C4 was determined by using surface plasmon resonance in a BIAcore 2000 (Biacore AG, Uppsala, Sweden). In a BIAcore flow cell, approximately 50 resonance units (RU) of biotinylated HD-peptide (250 nM in 1M NaCl and 50 mM NaOH) was coupled to a streptavidin sensor chip, pre-conditioned with three consecutive 1-minute injections of 1 M NaCl in 50 mM NaOH. […] Association was measured under a continuous flow of 5 μl/min with a concentration range from 60 to 100 nM, The kon was determined from a plot of In (dR/dt)/t versus concentration, where R is response and t is time (Karlsson et al., J. Immunol. Methods 145: 229-240 (1991)). The koff was determined from the dissociation part of the sensorgram at the highest concentration of intrabody analyzed by using a flow rate of 20 μl/min. The Kd was calculated as koff/kon.\nas §1"}}, "data": [{"molecule": "B1", "values": [{"measurement": "extent of aggregation", "setting": "[1]; intrabody to antigen plasmid ratio 3:1, HD-polyQ72-eGFP or HD-polyQ104-eGFP", "result": "qualitative decrease in the extent of aggregation"}, {"measurement": "number of SDS-insoluble fluorescent aggregates", "setting": "[1]", "result": "pronounced reduction in aggregation"}, {"measurement": "number of SDS-insoluble fluorescent aggregates", "setting": "[1]; listed as C4", "result": "significantly reduced the number of aggregates"}, {"measurement": "cellular distribution of GFP-DRPLA-35Q", "setting": "[2]", "result": "no change in the cellular distribution of DRPLA polypeptide"}, {"measurement": "ELISA binding specificity", "setting": "[3]", "result": "binds specifically to the N-terminal HD sequence"}, {"measurement": "ELISA binding specificity", "setting": "[3]; listed as cc-Nt-HD-C4 sFv", "result": "reacted preferentially with antigens containing the Nt-HD flanking peptide sequence"}, {"measurement": "binding affinity (Ka)", "setting": "[4]", "result": "1.3e+08", "unit": "M⁻¹"}]}]}
